Measured values: publication PMC8631942
Several values for one entry are separate records, joined by “and”; a condition that tells them apart may be missing. Equal entries are not always repeated.

Key:
[1] = biological target: pre-phosphorylated His10-PD-1 ICD (aa 194-288) PD-1^FY (human) (UniProt Q15116); experiment: SPR; OpenSPR (Nicoya); pre-phosphorylated His10-tagged PD-1 ICD or BTLA ICD tyrosine mutant immobilised on a Ni sensor chip (about 1500 RU); SH2 injected at 20-1000 nM, 20 ul/min; 20 mM HEPES, 150 mM NaCl, 5 mM imidazole, 0.05% Tween-20, 10% glycerol, pH 7.5; equilibrium fit ('Evaluate EC50', TraceDrawer); three independent repeats on different chips
[2] = biological target: pre-phosphorylated His10-PD-1 ICD (aa 194-288) PD-1^YF (human) (UniProt Q15116); experiment: as above
[3] = biological target: pre-phosphorylated His10-BTLA ICD (aa 190-289) triple-tyrosine-mutant FFYF (human) (UniProt Q7Z6A9); experiment: as above
[4] = biological target: His10-PD-1^ICD PD-1^FY, pre-phosphorylated (human) (UniProt Q15116); experiment: SPR; OpenSPR (Nicoya); pre-phosphorylated His10-tagged PD-1 or BTLA ICD immobilised on a Ni sensor chip (about 1500 RU); SH2 injected at 20-1000 nM, 20 μl/min; 20 mM HEPES, 150 mM NaCl, 5 mM imidazole, 0.05% Tween-20, 10% glycerol, pH 7.5; equilibrium analysis (Evaluate EC50, TraceDrawer)
[5] = biological target: His10-PD-1^ICD PD-1^YF, pre-phosphorylated (human) (UniProt Q15116); experiment: as above
[6] = biological target: pre-phosphorylated His10-BTLA ICD (aa 190-289) triple-tyrosine-mutant FFFY (human) (UniProt Q7Z6A9); experiment: SPR; OpenSPR (Nicoya); pre-phosphorylated His10-tagged PD-1 ICD or BTLA ICD tyrosine mutant immobilised on a Ni sensor chip (about 1500 RU); SH2 injected at 20-1000 nM, 20 ul/min; 20 mM HEPES, 150 mM NaCl, 5 mM imidazole, 0.05% Tween-20, 10% glycerol, pH 7.5; equilibrium fit ('Evaluate EC50', TraceDrawer); three independent repeats on different chips
[7] = biological target: His10-BTLA^ICD BTLA^FFYF, pre-phosphorylated (human) (UniProt Q7Z6A9); experiment: SPR; OpenSPR (Nicoya); pre-phosphorylated His10-tagged PD-1 or BTLA ICD immobilised on a Ni sensor chip (about 1500 RU); SH2 injected at 20-1000 nM, 20 μl/min; 20 mM HEPES, 150 mM NaCl, 5 mM imidazole, 0.05% Tween-20, 10% glycerol, pH 7.5; equilibrium analysis (Evaluate EC50, TraceDrawer)

Substance | Kd [1] | Kd [2] | Kd [3] | also measured
SNAP-SHP2-nSH2 (from UniProt Q06124 1-593) (domain or fragment) | 120 nM and 110 nM and 200 nM | 270 nM and 420 nM and 460 nM | 430 nM and 270 nM | 
SNAP-SHP2-cSH2 (from UniProt Q06124 1-593) (domain or fragment) | 83 nM and 77 nM and 130 nM | 1900 nM and 770 nM and 1400 nM |  | 
SNAP-SHP1-nSH2 (from UniProt P29350 1-595) (domain or fragment) | 72 nM and 110 nM and 88.3 nM | 200 nM and 210 nM and 400 nM | 50 nM and 73 nM and 68 nM | 
SNAP-SHP2-nSH2 (domain or fragment) |  |  |  | Kd [4]: 140 nM; Kd [5]: 380 nM
SNAP-SHP1-cSH2 (from UniProt P29350 1-595) (domain or fragment) | 1100 nM and 660 nM and 3200 nM |  | 2000 nM and 1600 nM | Kd [6]: 760 nM and 1200 nM and 610 nM
SNAP-SHP2-cSH2 (domain or fragment) |  |  |  | Kd [4]: 100 nM; Kd [5]: 1400 nM
SNAP-SHP1-nSH2 (domain or fragment) |  |  |  | Kd [7]: 64 nM
